Square brackets hold non-standard residues; d marks the D form. Ends that are not written are not given here. pY = N[C@@H](Cc1ccc(OP(=O)(O)O)cc1)C(=O)O

For the assay, the target named is T1, recombinant human STAT3, full-length, biotinylated through an N-terminal avi-tag (human, UniProt P40763 1-770, biotin on the avi-tag).
T1 construct: also called biotinylated STAT; full-length protein; not shown: avi-tag, N-terminal, kept
Description: AlphaScreen or HTRF; biotinylated STAT incubated 90 min with (or without) a platinum compound and FITC-pTyr peptide, then streptavidin-coated donor beads and anti-FITC acceptor beads; detection at 570 nm; cisplatin 1, 3, 10 or 30 uM inhibited the signal. The conditions noted are these: both partners purified. (In general: Alpha assays give light when donor and acceptor beads are brought close together.)

T1 sequence (P40763 whole entry): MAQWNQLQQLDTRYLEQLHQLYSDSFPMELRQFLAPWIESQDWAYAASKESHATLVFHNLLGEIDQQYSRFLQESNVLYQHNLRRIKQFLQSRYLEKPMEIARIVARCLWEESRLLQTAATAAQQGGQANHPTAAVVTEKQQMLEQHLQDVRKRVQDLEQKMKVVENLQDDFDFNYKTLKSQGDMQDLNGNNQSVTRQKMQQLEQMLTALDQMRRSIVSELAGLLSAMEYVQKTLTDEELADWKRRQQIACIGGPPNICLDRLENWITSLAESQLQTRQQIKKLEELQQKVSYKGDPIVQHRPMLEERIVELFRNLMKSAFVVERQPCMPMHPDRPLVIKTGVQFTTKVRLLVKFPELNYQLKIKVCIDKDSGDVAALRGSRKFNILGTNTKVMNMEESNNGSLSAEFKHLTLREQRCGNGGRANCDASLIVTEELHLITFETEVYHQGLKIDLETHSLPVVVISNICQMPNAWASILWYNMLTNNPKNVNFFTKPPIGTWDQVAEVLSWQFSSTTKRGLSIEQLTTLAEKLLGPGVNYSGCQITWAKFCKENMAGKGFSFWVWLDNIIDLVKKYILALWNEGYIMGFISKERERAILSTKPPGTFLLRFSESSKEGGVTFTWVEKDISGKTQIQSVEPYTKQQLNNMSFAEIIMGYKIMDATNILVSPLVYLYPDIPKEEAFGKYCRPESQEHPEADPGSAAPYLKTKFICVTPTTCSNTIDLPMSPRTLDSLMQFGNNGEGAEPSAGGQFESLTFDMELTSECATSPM

B1: 5-carboxyfluorescein (FITC)-GpYLPQTV phospho-tyrosine peptide probe (STAT3) (peptide)
peptide: G[pY]LPQTV
modifications: not fully specified (N-terminus)
notes: pTyr peptide that corresponds with a STAT docking site of the upstream receptor; also called FITC-pTyr peptide; pTyr
For the molecule B1, the binding result is recorded as “binds”.

For the origin of these results see publication PMC5589592, “Direct inhibition of STAT signaling by platinum drugs contributes to their anti-cancer activity” (Oncotarget, 2017).
